Data on 24 molecules can be found in US20240116997A1 (BRIGHT PEAK THERAPEUTICS, published 2024).

Sequences and labels used below:
T1: IL-18 receptor (IL-18Rαβ) on cells (UniProt Q13478 19-541; O95256 20-599, limits assumed)
T1 sequence (looked up) 1: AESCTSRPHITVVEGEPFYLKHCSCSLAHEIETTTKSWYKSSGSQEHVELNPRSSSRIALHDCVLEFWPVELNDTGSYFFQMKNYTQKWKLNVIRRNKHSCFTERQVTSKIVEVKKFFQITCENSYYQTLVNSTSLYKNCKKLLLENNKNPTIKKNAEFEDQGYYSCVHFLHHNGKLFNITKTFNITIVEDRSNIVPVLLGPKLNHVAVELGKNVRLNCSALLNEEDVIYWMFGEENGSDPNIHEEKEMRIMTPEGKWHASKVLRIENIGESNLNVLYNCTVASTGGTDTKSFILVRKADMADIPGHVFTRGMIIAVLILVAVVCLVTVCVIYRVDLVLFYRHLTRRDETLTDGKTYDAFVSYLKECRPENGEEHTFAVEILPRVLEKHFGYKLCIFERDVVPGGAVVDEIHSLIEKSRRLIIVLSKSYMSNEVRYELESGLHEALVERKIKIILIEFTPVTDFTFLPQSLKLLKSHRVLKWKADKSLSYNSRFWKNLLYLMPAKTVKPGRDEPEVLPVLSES
T1 sequence (looked up) 2: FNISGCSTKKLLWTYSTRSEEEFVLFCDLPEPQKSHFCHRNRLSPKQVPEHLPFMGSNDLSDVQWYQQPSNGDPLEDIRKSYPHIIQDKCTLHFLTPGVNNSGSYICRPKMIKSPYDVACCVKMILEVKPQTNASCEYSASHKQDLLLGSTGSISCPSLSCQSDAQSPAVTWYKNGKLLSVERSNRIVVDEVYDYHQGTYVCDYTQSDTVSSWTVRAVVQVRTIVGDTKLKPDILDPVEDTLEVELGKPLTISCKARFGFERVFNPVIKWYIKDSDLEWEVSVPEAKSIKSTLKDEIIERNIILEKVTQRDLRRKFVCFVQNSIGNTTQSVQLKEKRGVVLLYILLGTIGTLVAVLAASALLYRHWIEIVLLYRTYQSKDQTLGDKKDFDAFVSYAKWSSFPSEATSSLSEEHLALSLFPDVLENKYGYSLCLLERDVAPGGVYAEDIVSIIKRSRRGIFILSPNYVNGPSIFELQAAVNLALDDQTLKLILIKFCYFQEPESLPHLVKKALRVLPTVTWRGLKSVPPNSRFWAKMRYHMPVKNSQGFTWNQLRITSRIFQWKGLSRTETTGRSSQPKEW

B1: C187 (Propeptide-PLGLAG-C086; SEQ ID NO: 72) (ligand)
chain: MAAEPVEDNCINFVAMKFIDNTLYFIAEDDENLESDPLGLAGYFGKLKSKLSIIRNLNDQVLFIDQGNRPLFEDMTDSDARDNAPRTIFIISMYADSQPRGMAVAISVKCEKISTLSAENKIISFKEMNPPDNIKDTKSDIIFFQRSVPGHDNKMQFESSSYEGYFLAAEKERDLFKLILKKEDELGDRSIMFTVQNED
B2: C185 (Propeptide-PLG-C086; SEQ ID NO: 70) (ligand)
chain: MAAEPVEDNCINFVAMKFIDNTLYFIAEDDENLESDPLGYFGKLKSKLSIIRNLNDQVLFIDQGNRPLFEDMTDSDARDNAPRTIFIISMYADSQPRGMAVAISVKCEKISTLSAENKIISFKEMNPPDNIKDTKSDIIFFQRSVPGHDNKMQFESSSYEGYFLAAEKERDLFKLILKKEDELGDRSIMFTVQNED
B3: C137 (C086-GGGGSGGGGSGGGG-IL-18Rα D3-His6, non-cleavable control; SEQ ID NO: 78) (ligand)
chain: YFGKLKSKLSIIRNLNDQVLFIDQGNRPLFEDMTDSDARDNAPRTIFIISMYADSQPRGMAVAISVKCEKISTLSAENKIISFKEMNPPDNIKDTKSDIIFFQRSVPGHDNKMQFESSSYEGYFLAAEKERDLFKLILKKEDELGDRSIMFTVQNEGGGGSGGGGSGGGGSNIVPVLLGPKLNHVAVELGKNVRLNCSALLNEEDVIYWMFGEENGSDPNIHEEKEMRIMTPEGKWHASKVLRIENIGESNLNVLYNCTVASTGGTDTKSFILVRKADHHHHHH
B4: C190 (Propeptide-C086, non-cleavable control; SEQ ID NO: 68) (ligand)
chain: MAAEPVEDNCINFVAMKFIDNTLYFIAEDDENLESDYFGKLKSKLSIIRNLNDQVLFIDQGNRPLFEDMTDSDARDNAPRTIFIISMYADSQPRGMAVAISVKCEKISTLSAENKIISFKEMNPPDNIKDTKSDIIFFQRSVPGHDNKMQFESSSYEGYFLAAEKERDLFKLILKKEDELGDRSIMFTVQNED
B5: C136 (C086-GGSGG-IL-18Rα D3-His6, non-cleavable control; SEQ ID NO: 77) (ligand)
chain: YFGKLKSKLSIIRNLNDQVLFIDQGNRPLFEDMTDSDARDNAPRTIFIISMYADSQPRGMAVAISVKCEKISTLSAENKIISFKEMNPPDNIKDTKSDIIFFQRSVPGHDNKMQFESSSYEGYFLAAEKERDLFKLILKKEDELGDRSIMFTVQNEGGSGGSNIVPVLLGPKLNHVAVELGKNVRLNCSALLNEEDVIYWMFGEENGSDPNIHEEKEMRIMTPEGKWHASKVLRIENIGESNLNVLYNCTVASTGGTDTKSFILVRKADHHHHHH
B6: C151 (V11I, D35A, C38A, K53A, C76A, C127A) (ligand)
chain: YFGKLESKLSIIRNLNDQVLFIDQGNRPLFEDMTASDARDNAPRTIFIISMYADSQPRGMAVTISVKCEKISTLSAENKIISFKEMNPPDNIKDTKSDIIFFQRSVPGHDNKMQFESSSYEGYFLAAEKERDLFKLILKKEDELGDRSIMFTVQNED
B7: C165 (V11I, C38A, S55R, C76A, C127A) (ligand)
chain: B6 chain with A35D, A53K, S55R
B8: C161 (K8R, V11I, C38A, C76A, Q103E, C127A) (ligand)
chain: B6 chain with K8R, A35D, A53K, Q103E
B9: C157 (V11I, C38A, K53A, C76A, C127A, D132A) (ligand)
chain: B6 chain with A35D, D132A
B10: C156 (V11I, C38A, N41A, K53A, C76A, C127A) (ligand)
chain: B6 chain with A35D, N41A
B11: C167 (V11I, C38A, C76A, S105I, C127A) (ligand)
chain: B6 chain with A35D, A53K, S105I
B12: C158 (V11I, C38A, K53A, C76A, G108A, C127A) (ligand)
chain: B6 chain with A35D, G108A
B13: C155 (V11I, C38A, D40A, K53A, C76A, C127A) (ligand)
chain: B6 chain with A35D, D40A
B14: C163 (V11I, C38A, C76A, Q103K, C127A) (ligand)
chain: B6 chain with A35D, A53K, Q103K
B15: C166 (V11I, C38A, S55T, C76A, C127A) (ligand)
chain: B6 chain with A35D, A53K, S55T
B16: C153 (V11I, D37A, C38A, K53A, C76A, C127A) (ligand)
chain: B6 chain with A35D, D37A
B17: C164 (V11I, C38A, S55H, C76A, C127A) (ligand)
chain: B6 chain with A35D, A53K, S55H
B18: C162 (K8E, V11I, C38A, C76A, Q103R, C127A) (ligand)
chain: B6 chain with K8E, A35D, A53K, Q103R
B19: C154 (V11I, E31A, D37A, C38A, K53A, C76A, C127A) (ligand)
chain: B6 chain with E31A, A35D, D37A
B20: C160 (V11I, C38A, K53A, C76A, D110A, C127A) (ligand)
chain: B6 chain with A35D, D110A
B21: C152 (V11I, S36A, C38A, K53A, C76A, C127A) (ligand)
chain: B6 chain with A35D, S36A
B22: C159 (V11I, C38A, K53A, C76A, H109A, C127A) (ligand)
chain: B6 chain with A35D, H109A
B23: IL-18 polypeptide SEQ ID NO: 34 (E06K, K53A, S55A) (ligand)
chain: B6 chain with E6K, I11V, A35D, A38C, S55A, A76C, A127C
B24: C168 (V11I, C38A, C76A, S105K, C127A) (ligand)
chain: B6 chain with A35D, A53K, S105K

Where a chain is given by its changes, count along the chain named. In names and notes the source's numbering stands.

The first assay deals with T1, IL-18 receptor (IL-18Rαβ) on cells. Kind of assay: cell-based or functional assay.
On to B1, for which the “Fold potency loss vs C086” value was found to be 29400 fold and the “HEK-blue EC50” value was 1240 nM.

Regarding B2, the “Fold potency loss vs C086” value is 60900 fold and the “HEK-blue EC50” value came out at 2560 nM.

Take B3: the “Fold potency loss vs C086” value is 49 fold and the “HEK-blue EC50” value was found to be 2.08 nM.

In the case of B4, the “HEK-blue EC50” value was determined as 404 nM.

Consider B5, for which the “Fold potency loss vs C086” value was 21 fold and the “HEK-blue EC50” value was determined as 0.884 nM.

For a further assay the target is unchanged. Kind of assay: cell-based or functional assay. The source holds these as a separate data set.
As to B6, the “EC50 (pM), HEK-Blue IL-18R reporter assay” value (“EC50 (pM)” below) was found to be 13.1 pM.

In the case of B7, the “EC50 (pM)” value came to 1.91 pM.

For the molecule B8, the “EC50 (pM)” value came out at 2.01 pM.

Consider B9, for which the “EC50 (pM)” value worked out at 1.95 pM.

As to B10, the “EC50 (pM)” value is 11.7 pM.

With B11, the “EC50 (pM)” value worked out at 5.37 pM.

For the molecule B12, the “EC50 (pM)” value was determined as 15.6 pM.

For B13, the “EC50 (pM)” value is 0.52 pM.

With B14, the “EC50 (pM)” value was 1.5 pM.

As for B15, the “EC50 (pM)” value came to 4.73 pM.

Turning to B16, the “EC50 (pM)” value came to 14.1 pM.

As for B17, the “EC50 (pM)” value came out at 3.14 pM.

As for B18, the “EC50 (pM)” value worked out at 2.3 pM.

For the molecule B19, the “EC50 (pM)” value was found to be 11.9 pM.

With B20, the “EC50 (pM)” value was 2.02 pM.

Turning to B21, the “EC50 (pM)” value came to 0.25 pM.

Take B22: the “EC50 (pM)” value came out at 19.5 pM.

As for B23, the “EC50 (pM)” value was 272 pM.

For the molecule B24, the “EC50 (pM)” value amounted to 7.73 pM.

Another assay has the same target. Kind of assay: cell-based or functional assay. The source holds these as a separate data set.
Turning to B6, the “EC50 (nM), IFNγ induction, NK-92 cells” value turned out to be 0.033 nM.

Regarding B7, the “EC50 (nM), IFNγ induction, NK-92 cells” value came out at 0.098 nM.

For B8, the “EC50 (nM), IFNγ induction, NK-92 cells” value came out at 0.061 nM.

Regarding B9, the “EC50 (nM), IFNγ induction, NK-92 cells” value came to 0.073 nM.

For B10, the “EC50 (nM), IFNγ induction, NK-92 cells” value came out at 0.056 nM.

With B11, the “EC50 (nM), IFNγ induction, NK-92 cells” value is 0.098 nM.

Regarding B12, the “EC50 (nM), IFNγ induction, NK-92 cells” value was 0.123 nM.

As to B13, the “EC50 (nM), IFNγ induction, NK-92 cells” value amounted to 0.558 nM.

In the case of B14, the “EC50 (nM), IFNγ induction, NK-92 cells” value was 0.414 nM.

On to B15, for which the “EC50 (nM), IFNγ induction, NK-92 cells” value was 0.103 nM.

With B16, the “EC50 (nM), IFNγ induction, NK-92 cells” value stood at 0.062 nM.

On to B17, for which the “EC50 (nM), IFNγ induction, NK-92 cells” value worked out at 0.176 nM.

As for B18, the “EC50 (nM), IFNγ induction, NK-92 cells” value was 0.093 nM.

On to B19, for which the “EC50 (nM), IFNγ induction, NK-92 cells” value was 0.067 nM.

Take B20: the “EC50 (nM), IFNγ induction, NK-92 cells” value is 0.057 nM.

Consider B21, for which the “EC50 (nM), IFNγ induction, NK-92 cells” value was 0.175 nM.

Consider B22, for which the “EC50 (nM), IFNγ induction, NK-92 cells” value came out at 0.028 nM.

In the case of B23, the “EC50 (nM), IFNγ induction, NK-92 cells” value is 0.824 nM.

Take B24: the “EC50 (nM), IFNγ induction, NK-92 cells” value worked out at 1.37 nM.
